Data on 30 sequences can be found in the nanobody polyreactivity screen of Harvey et al. (2022).

The series can be described thus: yeast display, Sf9 membrane polyspecificity reagent, FACS + sequencing; frameworks hold sequencing errors. Summed up:
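Polyreactivity labels are assigned by the sorting gate from which each nanobody was recovered. The gates were low and high (top ~1%), set on anti-HA fluorescence for expression and streptavidin fluorescence for reagent binding. Before sorting, galactose-induced (36–48 hours) yeast display cells were stained for 1 hour at 4 °C with 10% biotinylated, detergent-solubilized Sf9 membrane reagent.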
As for “QVQLVESGGGLVQAGGSLRLSCAASGRIFYTNAMGWYRQAPGKESELVAVISWGGDTTYYADSVKGRFTISRDNAKYTVYLQMNSLKPDDTADYYFNADWGPTYEIYDSWGQGTQVTVSS”, the “polyreactivity (PSR sort gate)” value is “low polyreactivity”. To “QVQLVESGGGLVQAGGSLRLSCAASGRIFYTNGMGWYRQAPGKERELVAAISYNGGRTYYADSVKGRFTISRDNAKNTVYLQMNSLKPEDTAVYYCNKRGDYQFHFDYWGQGTQVTVSA” belongs “low polyreactivity”; to “QVQLVESGGGLVQAGGSLRLSCAASGRIFYTNVMGWYRQATGKERELVAAISTGGGRTYYADSVKGRITISRDNAKNSVYLQMNSLKPEDTAVYDCAASGRYAIVWGDQYYGYYYWGQGTQVTVSS”, “high polyreactivity”; to “QVQLVESGGGLVQAGGSLRLSCAASGRIFYTYAMGWYRQAPGKERELVAAIRWSSGSTFYADSVKGRFTISRDNAKNSVYLQMNSLKPEDTAVYYCATEYYPQYQSTGWYDYWGQGTQVTVSS”, “low polyreactivity”.

Turning to “QVQLVESGGGLVQAGGSLRLSCAASGRIFYTYAMGWYRQSPGKERELVAAISWGGGRTYYADSVKGRFTISRDNAKNTVYLQMNSLKPEDTAVYYCNAVSLKFTRKYDYWGQGTQVTVSS”, the “polyreactivity (PSR sort gate)” value was “high polyreactivity”.

“QVQLVESGGGLVQAGGSLRLSCAASGRIFYTYVMGWYRQAPGKERELVAAITRRGGSTNYADSVKGRFTISRDNAKNTVYLQMNSLKPEDTAVYYCAAGTYKGSSVYGMDYWGQGTQVTVSS”: the “polyreactivity (PSR sort gate)” value was “high polyreactivity”. For “QVQLVESGGGLVQAGGSLRLSCAASGRIFYVYAMGWYRAPGKERELVASISYIGGSTYYADSVKGRFTISRDNAKNTVYLQMNSLIPEDTAVYYCATDYYGYTVSFLVASWPDDYWGQGTQVTVSS” the value was “low polyreactivity”; for “QVQLVESGGGLVQAGGSLRLSCAASGRIFYVYAMGWYRPAPGKERELVAAITQSGGRTYYADSVKGRFTISRDNAKNTVYLQMNSLKPEDTAVYYCNADGDDLDWNYYLVQYDYWGQGTQVTVSS”, “low polyreactivity”; for “QVQLVESGGGLVQAGGSLRLSCAASGRIFYVYAMGWYRQAPGKERELVAAISRGGSTNYADSVKGRFTISRDNAKNTVYLQMNSLKPEDTAVYYCAASSLPHYSYRHSYLYEYWGQGTQVTVSS”, “low polyreactivity”. To “QVQLVESGGGLVQAGGSLRLSCAASGRIFYVYTLGWYRQAPGKERELVAAITSGGSTNYADSVKGRFTISRDNAKNTVYLQMNSLKPEDTAVYFCAKKAWVIYNRKFSSGYDYWGQGTQVTVSS” belongs “low polyreactivity”. For “QVQLVESGGGLVQAGGSLRLSCAASGRIFYVYTMGWYRQARGKERELVAAISWSGGSTHYADSVKGRFTISRDNAKNTVYLQMNSLKPEDTAVYYCNKGVLSRVAFEYWGQGTQVTVSS” the value was “low polyreactivity”; for “QVQLVESGGGLVQAGGSLRLSCAASGRIFYWYAMGWYRKAPGKERELVAAIIWSGGSSYYADSVKGRFTISRDNAKNTVYLQMNSLKPEDTAVYYSAADRILEMGYWGQGTQVTVSS”, “low polyreactivity”; for “QVQLVESGGGLVQAGGSLRLSCAASGRIFYWYARGWYRQAPGKERELVASISRRAGSTYYADSVKGRFTISRDNAKNTVYLQMHSLKPEDTAVYYCAAVGRFDRVFDYDYWGQGTQVTVSS”, “high polyreactivity”. On to “QVQLVESGGGLVQAGGSLRLSCAASGRIFYWYVMGWYRQAPGKERELVASISSGGGTNYADSVKGRFTISRDNAKNTVYLQMNSLKPEDTAVYYCAARAYPYYWTGQKQSRFGYWGQGTQVTVSS”, for which the “polyreactivity (PSR sort gate)” value is recorded as “high polyreactivity”. To “QVQLVESGGGLVQAGGSLRLSCAASGRIFYYNAMGWFRQAPGQERELVAAITSGGSTNYADSVKGRFTISRDNAKNTVYLQMNSLTPEDTAVYYCNARRYGSPRSEVHYDYWGQGTQVTVSS” belongs “low polyreactivity”; to “QVQLVESGGGLVQAGGSLRLSCAASGRIFYYNAMGWYRPAPGKVRELVAVMTGGGSTNYADSVKGRFTISRDNAKNTVYLQMNSLKPEDTAVYYCAARRAWGTKYHGYDYWGQGTQVTVSS”, “low polyreactivity”; to “QVQLVESGGGLVQAGGSLRLSCAASGRIFYYNAMGWYRQAPGKERDLVAAITYSGTSTYYADSVKGRFTISRDNAKNTVYLQINSLKPEDTAVYYCAVDSTDQAPPTYDYWGQGTQVTVSS”, “low polyreactivity”. Take “QVQLVESGGGLVQAGGSLRLSCAASGRIFYYNAMGWYRQAPGKERELVAAISTRGTSTYYADSVKGRFTISRDNAKNTVYLQMNSLKPEDTAVYYCNRASGNWQSYLRYDYWGQGTQVTVSS”: the “polyreactivity (PSR sort gate)” value was “low polyreactivity”. As to “QVQLVESGGGLVQAGGSLRLSCAASGRIFYYNGMGWYRQAPGKERELVAAISSRGGSTYYADSVKGRFTISRDNAKNTVYLQMNSLKPEDTAVYYCAATLSDRYSWRPYGMYYWGQGTQVTVSS”, the “polyreactivity (PSR sort gate)” value is given as “high polyreactivity”. To “QVQLVESGGGLVQAGGSLRLSCAASGRIFYYNSMGWYRQAPGKERELVAAIRRSGSRTYYADSVKGRFTISRDNAKNTVYFQMNSLIPEDTAVYYCAAKYASFGHHDSWGQGTQVTVSS” belongs “high polyreactivity”; to “QVQLVESGGGLVQAGGSLRLSCAASGRIFYYNSMGWYRQAPGKERELVASITGSGGSTYYADSVKGRFTISRDNAKNTVYLQMNSLKPEDTAVYYFAKREYLYPFYYVAKYDYWGQGTQVTVSS”, “low polyreactivity”.

On to “QVQLVESGGGLVQAGGSLRLSCAASGRIFYYNTMGWYRQAPGKARELVAAITTNGGSTYYADSVKGRFTISRDNAKNTVYLQMNSPKPEDTAVYYCNRDRYPYYYAYNYWGQGTQVTVSS”, for which the “polyreactivity (PSR sort gate)” value was “low polyreactivity”.

Turning to “QVQLVESGGGLVQAGGSLRLSCAASGRIFYYTTMGWSRQAPGKERELVAAISVSGGSTYYADSVKGRFTISRDKAKNTVYLQRNSLKPEDTAVYYCNAKDWYFYRYDYWGQGTQVTVSS”, the “polyreactivity (PSR sort gate)” value is listed as “low polyreactivity”. With “QVQLVESGGGLVQAGGSLRLSCAASGRIFYYYAMGWYRQAPGKERELVADITWSGGSTYYADSVKGRFTISRDNAKNTVYLLRNSLKPEDTAVYYCNAVSFNYLLEYDYWGQGTQVTVSS”, the “polyreactivity (PSR sort gate)” value is reported as “high polyreactivity”.

Take “QVQLVESGGGLVQAGGSLRLSCAASGRIFYYYAMGWYRQAPRKERELVASINSGGSTYYADSVKGRFTISRDNAKNTVYLQMNSMKPEDTAVYYCAAGFQLVKGYLSGRAAYYYWGQGTQVTVSS”: the “polyreactivity (PSR sort gate)” value is listed as “high polyreactivity”.

“QVQLVESGGGLVQAGGSLRLSCAASGRIFYYYDMGWYRQAPGKERELVAAINYSGGSTYYADSVKGRFTISRDNAKNTVYLQMNSLKPEDTAVYYCAADGYYYYSYGTTDQDDYWGQGTQVTVSS”: the “polyreactivity (PSR sort gate)” value is given as “low polyreactivity”. For “QVQLVESGGGLVQAGGSLRLSCAASGRIFYYYDMGWYRQAPGKERELVAAITYSDSSTYADSVKGRFTISRDNAKNTVYLQMNSLKPEDTAVYYCAADYVYPGVRLEMDYWGQGTQVTVSS”, the “polyreactivity (PSR sort gate)” value is recorded as “low polyreactivity”. As to “QVQLVESGGGLVQAGGSLRLSCAASGRIFYYYVMGWYRQAPGKERELVAVIDWSGGSTYYADSVKGRFTISRDNAKNTVYLQMNSLKPEDTAVYYCAKVWLNFSLAYEDYDYWGQGTQVTVSS”, the “polyreactivity (PSR sort gate)” value is recorded as “low polyreactivity”. For the sequence “QVQLVESGGGLVQAGGSLRLSCAASGRIFYYYVMGWYRQAPGKERELVAVIDWSGGSTYYADSVKGRFTISRDNAKNTVYLQMNSLKPEDTGVYYCAKVWLKFSLAYEDYDYLGQGTQVTVSS”, the “polyreactivity (PSR sort gate)” value was “low polyreactivity”. On to “QVQLVESGGGLVQAGGSLRLSCAASGRIGYYVMGWYRQAPGKERELVAAISRSGDSTYYADSVKGRFTISRDNAKNTVYLQMNSLKPEDTAVYYCAAASGWRYFYKYDYWGQGTQVTVSS”, for which the “polyreactivity (PSR sort gate)” value is reported as “high polyreactivity”.
